Experimental data as given in publication PMC7247549, “Biochemical Convergence of Mitochondrial Hsp70 System Specialized in Iron–Sulfur Cluster Biogenesis” (International Journal of Molecular Sciences, 2020).
Values belong to the molecule of their own block, whether it stands above or below them.

What was measured:
[1] = biological target: Isu1-GST fusion protein (S. cerevisiae) (UniProt Q03020); test: pull-down; Isu1-GST (30 μM) incubated with increasing Ssq1, 4 mM ADP, PD buffer (40 mM HEPES-KOH pH 7.5, 100 mM KCl, 1 mM DTT, 10 mM MgCl2, 5% glycerol), 15 min at 25 °C, then glutathione resin; SDS-PAGE, Coomassie, densitometry, Michaelis-Menten hyperbolic fit
Chain of Isu1-GST fusion protein (S. cerevisiae) (Q03020 28-165): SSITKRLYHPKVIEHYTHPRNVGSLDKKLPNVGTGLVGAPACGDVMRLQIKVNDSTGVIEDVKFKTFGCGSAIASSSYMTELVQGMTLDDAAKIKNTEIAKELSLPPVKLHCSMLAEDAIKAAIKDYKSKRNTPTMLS

purified protein = substrate: Nc1ncnc2c1ncn2[C@@H]1O[C@H](COP(=O)(O)OP(=O)(O)OP(=O)(O)O)[C@@H](O)[C@H]1O; test: purified protein; conditions: 1 μM HscA, no exchange factor, no IscU or HscB mentioned, pH 7.5, 150 mM KCl, 20 mM Mg acetate, 23 °C
Ssq1 (S. cerevisiae) [2] = biological target: T1, Ssq1 (S. cerevisiae)
T1 sequence (Q05931 whole entry, looked up): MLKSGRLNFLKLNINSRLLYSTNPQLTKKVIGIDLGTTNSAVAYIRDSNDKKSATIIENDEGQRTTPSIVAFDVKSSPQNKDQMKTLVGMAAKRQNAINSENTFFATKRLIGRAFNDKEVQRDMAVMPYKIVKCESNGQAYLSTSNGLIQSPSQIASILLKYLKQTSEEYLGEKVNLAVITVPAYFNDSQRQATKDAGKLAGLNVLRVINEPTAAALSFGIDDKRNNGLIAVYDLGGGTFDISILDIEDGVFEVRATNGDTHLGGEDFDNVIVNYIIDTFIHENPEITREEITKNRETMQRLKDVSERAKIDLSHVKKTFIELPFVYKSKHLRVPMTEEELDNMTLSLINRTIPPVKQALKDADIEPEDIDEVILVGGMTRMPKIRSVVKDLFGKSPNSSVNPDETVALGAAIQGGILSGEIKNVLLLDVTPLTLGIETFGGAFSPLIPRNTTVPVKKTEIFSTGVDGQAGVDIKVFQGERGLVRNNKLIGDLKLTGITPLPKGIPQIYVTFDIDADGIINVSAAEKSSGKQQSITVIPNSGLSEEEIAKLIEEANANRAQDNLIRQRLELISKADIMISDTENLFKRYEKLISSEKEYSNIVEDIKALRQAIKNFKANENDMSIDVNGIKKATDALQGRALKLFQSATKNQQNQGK

Ssq1 (S. cerevisiae) [3] = biological target: T1, Ssq1 (S. cerevisiae); conditions: scale: fold
[4] = substrate: Nc1ncnc2c1ncn2[C@@H]1O[C@H](COP(=O)(O)OP(=O)(O)OP(=O)(O)O)[C@@H](O)[C@H]1O; test: steady-state ATPase, PK/LDH NADH-coupled assay; assay type: biochemical, Saccharomyces cerevisiae; conditions: 2.5 μM Ssq1 with 2.5 μM nucleotide exchange factor Mge1, no Isu1 or Hsc20 mentioned, pH 7.5, 150 mM KCl, 20 mM Mg acetate, 23 °C

- Km (with ADP) [1]: 2.18 µM
Molecule: Ssq1 (natural protein)

B1: HscA (Escherichia coli K-12) (protein)
chain: MALLQISEPGLSAAPHQRRLAAGIDLGTTNSLVATVRSGQAETLADHEGRHLLPSVVHYQQQGHSVGYDARTNAALDTANTISSVKRLMGRSLADIQQRYPHLPYQFQASENGLPMIETAAGLLNPVRVSADILKALAARATEALAGELDGVVITVPAYFDDAQRQGTKDAARLAGLHVLRLLNEPTAAAIAYGLDSGQEGVIAVYDLGGGTFDISILRLSRGVFEVLATGGDSALGGDDFDHLLADYIREQAGIPDRSDNRVQRELLDAAIAAKIALSDADSVTVNVAGWQGEISREQFNELIAPLVKRTLLACRRALKDAGVEADEVLEVVMVGGSTRVPLVRERVGEFFGRPPLTSIDPDKVVAIGAAIQADILVGNKPDSEMLLLDVIPLSLGLETMGGLVEKVIPRNTTIPVARAQDFTTFKDGQTAMSIHVMQGERELVQDCRSLARFALRGIPALPAGGAHIRVTFQVDADGLLSVTAMEKSTGVEASIQVKPSYGLTDSEIASMIKDSMSYAEQDVKARMLAEQKVEAARVLESLHGALAADAALLSAAERQVIDDAAAHLSEVAQGDDVDAIEQAIKNVDKQTQDFAARRMDQSVRRALKGHSVDEV
- Km (purified protein): 28 µM

- apparent Km of Hsc20 for stimulation of Ssq1 ATPase activity (radioactive assay, 10 μM Isu1, 0.5 μM Mge1), compared with that of HscB for HscA (fold (affinity, against HscA for HscB)) (Ssq1 (S. cerevisiae) [2]): 8
- apparent Km of Hsc20 (0.0025-0.25 μM) for stimulating the pull-down of Ssq1 with Isu1-GST in ATP, compared with that of HscB (Ssq1 (S. cerevisiae) [3]): 4
B2: Hsc20 (natural protein)
chain: TSTFYELFPKTFPKKLPIWTIDQSRLRKEYRQLQAQHHPDMAQQGSEQSSTLNQAYHTLKDPLRRSQYMLKLLRNIDLTQEQTSNEVTTSDPQLLLKVLDIHDELSQMDDEAGVKLLEKQNKERIQDIEAQLGQCYNDKDYAAAVKLTVELKYWYNLAKAFKDWAPGKQLEMNH

B3: Ssq1 (Saccharomyces cerevisiae S288C) (protein)
chain: PQLTKKVIGIDLGTTNSAVAYIRDSNDKKSATIIENDEGQRTTPSIVAFDVKSSPQNKDQMKTLVGMAAKRQNAINSENTFFATKRLIGRAFNDKEVQRDMAVMPYKIVKCESNGQAYLSTSNGLIQSPSQIASILLKYLKQTSEEYLGEKVNLAVITVPAYFNDSQRQATKDAGKLAGLNVLRVINEPTAAALSFGIDDKRNNGLIAVYDLGGGTFDISILDIEDGVFEVRATNGDTHLGGEDFDNVIVNYIIDTFIHENPEITREEITKNRETMQRLKDVSERAKIDLSHVKKTFIELPFVYKSKHLRVPMTEEELDNMTLSLINRTIPPVKQALKDADIEPEDIDEVILVGGMTRMPKIRSVVKDLFGKSPNSSVNPDETVALGAAIQGGILSGEIKNVLLLDVTPLTLGIETFGGAFSPLIPRNTTVPVKKTEIFSTGVDGQAGVDIKVFQGERGLVRNNKLIGDLKLTGITPLPKGIPQIYVTFDIDADGIINVSAAEKSSGKQQSITVIPNSGLSEEEIAKLIEEANANRAQDNLIRQRLELISKADIMISDTENLFKRYEKLISSEKEYSNIVEDIKALRQAIKNFKANENDMSIDVNGIKKATDALQGRALKLFQSATKNQQNQGK
- Km [4]: 25 µM
